Measurements published in paper PMC11643483, “Chip-Scale Aptamer Sandwich Assay Using Optical Waveguide-Assisted Surface-Enhanced Raman Spectroscopy”.

Molecular target: cardiac troponin I (cTnI) (UniProt P19429 2-210)
Experiment: SERS aptamer sandwich assay on waveguide; 1 ng/mL cTnI stock (25 uL mixed with 50 uL reporter NPs); sandwich with N2-AuNP; no cTnI-free control described; aptamer-AuNPs resuspended in PBS; cTnI incubated 30 min with reporter NPs, then 1 h on waveguide, rinsed with buffer; pH and temperature not stated
Details: protein: commercial

Chain of cardiac troponin I (cTnI) (P19429 2-210): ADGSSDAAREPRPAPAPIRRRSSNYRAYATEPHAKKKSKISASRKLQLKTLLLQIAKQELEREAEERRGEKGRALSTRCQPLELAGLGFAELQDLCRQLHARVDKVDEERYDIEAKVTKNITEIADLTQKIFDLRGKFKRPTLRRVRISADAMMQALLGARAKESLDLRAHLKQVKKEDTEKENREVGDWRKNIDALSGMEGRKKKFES

**Q.** Does CGTGCAGTACGCCAACCTTTCTCATGCGCTGCCCCTCTTA (ssDNA, 5'-amine-spacer 18-spacer 18) [primary (capture) aptamer] bind?
**A.** binds
